The values that follow come from patent publication US20230287363, “DNA POLYMERASE, APTAMER, WARM-START DNA POLYMERASE AND PREPARATION METHODS AND APPLICATION THEREOF” (Sun Yat-Sen University, published 2023).

This data set addresses T1, RHAU23-Bst (DHX36 RHAU23 peptide fused to N-terminus of Bst-LF) (Homo sapiens / Geobacillus …).
T1 chain: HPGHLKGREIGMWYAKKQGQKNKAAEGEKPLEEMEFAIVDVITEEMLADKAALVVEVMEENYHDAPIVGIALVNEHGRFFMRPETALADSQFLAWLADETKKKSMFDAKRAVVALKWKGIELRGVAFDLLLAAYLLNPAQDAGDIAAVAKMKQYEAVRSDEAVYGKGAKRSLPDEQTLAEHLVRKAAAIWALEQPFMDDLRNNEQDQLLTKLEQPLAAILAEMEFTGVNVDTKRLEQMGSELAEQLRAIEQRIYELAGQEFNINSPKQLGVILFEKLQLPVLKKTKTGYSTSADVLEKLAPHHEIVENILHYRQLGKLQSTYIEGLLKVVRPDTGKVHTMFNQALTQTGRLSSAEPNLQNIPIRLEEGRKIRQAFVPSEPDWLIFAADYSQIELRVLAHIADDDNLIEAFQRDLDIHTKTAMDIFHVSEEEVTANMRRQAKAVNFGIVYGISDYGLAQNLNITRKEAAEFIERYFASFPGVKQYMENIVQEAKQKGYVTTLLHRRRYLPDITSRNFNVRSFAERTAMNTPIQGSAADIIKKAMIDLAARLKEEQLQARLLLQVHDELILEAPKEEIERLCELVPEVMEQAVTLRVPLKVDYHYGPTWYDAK
In words: EMSA; Kd stated only as nM level; K+ buffer, 4 C. The note with it: tags: His-tag, pCold-I, E. coli BL21; label: 5'-FAM (EMSA); bulged G4 with flanking dsDNA. On the procedure:
Oligonucleotides were purchased from Sangon Biotech Co., Ltd (China). Double-stranded DNAs (dsDNA) were paired from the complementary single-stranded DNA (ssDNA) by denaturing at 95° C. for 5 min and subsequently cooling to 25° C. in a buffer containing 10 mM Tris-HCl (pH 7.4), 75 mM KCl and 0.5 mM EDTA. 20 nM 5′-FAM-labeled aptamer DNA (Table 1) was dissolved in a first buffer, denatured at 95° C. for 5 min and subsequently cooled to 25° C. at a rate of 0.1° C./s; the first buffer contained 10 mM Tris-HCl (pH 7.4), 75 mM KCl, 0.5 mM EDTA, and 0.2 mg/ml BSA. Then each aptamer DNA and the specified concentration of DNA polymerase fused to G-quadruplex binding peptide were added into a second buffer, to bind at 4° C. for 1 hour, to form a DNA-protein complex; the second buffer contained 20 mM Tris-HCl (pH 8.8), 10 mM (NH₄)₂SO₄, 50 mM KCl, 2-8 mM MgSO₄, and 0.1% Tween-20.
The binding of aptamer to DNA polymerase was detected by electrophoretic mobility shift assay. Specifically, DNA-protein complex was electrophoresed on 8% or 12% non-denatured polyacrylamide gel containing 75 mM KCl at 4° C. for 2 h in 1×TBE buffer containing 75 mM KCl. The DNA-protein complex was photographed by the ChemiDoc MP imaging system (Bio-Rad) and digitized by the Image Quant 5.2 software.
Background: In EMSA bound probe runs differently from free probe, usually more slowly.

B1: PDGFRB-Fd-G4 (structured_DNA)
DNA 1: CCTGAAGCAGACAGCTAGTGAATTCGGGAGGGCGGCGGGGCAGGGTACTTGCGTATAACTGTTCCATAGT
DNA 2: ACTATGGAACAGTTATACGCAAGTATTTTTTTTTTTTTTTTTTTTTGAATTCACTAGCTGTCTGCTTCAGG
Consider B1, for which the binding result is “binds”.

B2: T4B1-Fd-G4 (structured_DNA)
DNA 1: CCTGAAGCAGACAGCTAGTGAATTCGTTTTGGTGGGTGGGTGGGTACTTGCGTATAACTGTTCCATAGT
DNA 2: B1 DNA 2
On to B2, for which the binding result is “binds”.
